Data: patent US20160024214A1 (Novo Nordisk, published 2016)
Values joined by “and” are separate entries in the source; they are usually repeats but may differ in a detail not shown here. Equal entries are not always repeated. Where two headings read alike, the source gives them in different places.

Experiments:
[1] = molecular target: T1, human NKG2D (hNKG2D) on the cell surface (human, UniProt P26718 1-216); assay: flow cytometry, NKG2D-expressing cells; 149810 first, then 16F16 as competitor
T1 construct: BaF/3 cells co-transfected with full-length NKG2D and DAP10, or native receptor on human NK, CD8+ and gamma-delta T cells of PBMC / whole blood; also called cell-surface NKG2D; NKG2D/DAP10-expressing BaF/3 cells
T1 chain: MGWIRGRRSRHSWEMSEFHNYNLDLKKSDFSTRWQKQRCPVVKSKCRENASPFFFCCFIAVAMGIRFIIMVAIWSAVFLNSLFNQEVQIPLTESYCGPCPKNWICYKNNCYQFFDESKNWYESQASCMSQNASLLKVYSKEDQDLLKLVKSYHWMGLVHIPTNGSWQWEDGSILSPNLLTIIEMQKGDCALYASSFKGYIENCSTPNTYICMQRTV

[2] = molecular target: T1, human NKG2D (hNKG2D) on the cell surface; assay: flow cytometry, NKG2D-expressing cells; pre-incubation with 149810, then ON72 as competitor (post-incubation antibody)
[3] = molecular target: T1, human NKG2D (hNKG2D) on the cell surface; assay: flow cytometry, NKG2D/DAP10 BaF/3 cells, dose-response
[4] = molecular target: T1, human NKG2D (hNKG2D) on the cell surface; assay: flow cytometry, NKG2D-expressing cells; ON72 first, then 16F16 as competitor
[5] = molecular target: T1, human NKG2D (hNKG2D) on the cell surface; assay: flow cytometry, NKG2D/DAP10 BaF/3 cells; antibody pre-incubated, then 1 µg hFc-MICA as competitor
[6] = molecular target: T1, human NKG2D (hNKG2D) on the cell surface; assay: flow cytometry, NKG2D-expressing cells; ON72 first, then 16F16 as competitor (FIG. 9A legend)
[7] = molecular target: recombinant NKG2D-Fc (R&D Systems) (human) (UniProt P26718); assay: SPR (Biacore), antibody over immobilised NKG2D-Fc, Langmuir fit
[8] = molecular target: T1, human NKG2D (hNKG2D) on the cell surface; assay: cell-based or functional assay
[9] = molecular target: T1, human NKG2D (hNKG2D) on the cell surface; assay: flow cytometry, NKG2D/DAP10 BaF/3 cells; antibody pre-incubated, then 1 µg hFc-MICA as competitor
[10] = molecular target: T2, soluble hNKG2D fragment (residues 81-216 of SEQ ID NO:2) (human, UniProt P26718 81-216); assay: complex purified by gel filtration; X-ray crystal structure 3.15 Å
T2 construct: Homodimer in the crystal with two hzON72 Fab molecules
T2 sequence: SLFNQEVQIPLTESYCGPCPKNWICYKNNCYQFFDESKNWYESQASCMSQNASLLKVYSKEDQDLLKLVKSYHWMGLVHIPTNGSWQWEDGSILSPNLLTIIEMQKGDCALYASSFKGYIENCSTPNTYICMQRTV

149810 (murine anti-hNKG2D antibody, R&D Systems)
% blockade of 16F16 binding [1]: 50%
Inhibition (%) [2]: 85%
EC50 [3]: 0.063 µg/mL and 0.042 nM

ON72 (murine anti-hNKG2D antibody, Beckman Coulter)
% of 16F16 binding blocked [4]: 82%
IC50 [5]: 0.019 µg/mL
full blockade of 1 µg MICA-Fc [5]: 0.54 µg/mL
% of 16F16 binding prevented [6]: 85%
Kd [7]: 0.17 nM
koff [7]: 0.00011 s⁻¹
kon [7]: 960000 M⁻¹ s⁻¹
% proliferation of PBMC, stimulation CD3 0.1 + CD28 + ON72 (immobilized) [8]: 22.9%
% proliferation of PBMC, stimulation CD3 0.1 + ON72 (immobilized) [8]: 7.12%
% proliferation of PBMC, stimulation CD3 0.3 + CD28 + ON72 (immobilized) [8]: 40.1%
% proliferation of PBMC, stimulation CD3 0.3 + ON72 (immobilized) [8]: 28.4%
EC50 (µg/ml), inhibition of NK-cell killing of ULPB3-expressing target cells (51Cr release) [8]: 0.065 µg/mL
down-modulation of cell-surface NKG2D, NKG2D/DAP10 BaF/3 cells, overnight, 1 µg [8]: 55%
internalization of NKG2D at 1 h, NKG2D+ lymphocytes in whole blood, 0.1 µg/ml [8]: 50 to 75%
internalization of NKG2D at 24 h, NKG2D+ lymphocytes in whole blood, 0.1 µg/ml [8]: 100%
IC50 [9]: 0.02 nM
full blockade of 1 µg MICA-Fc [9]: 0.24 nM
EC50 [3]: 0.062 µg/mL and 0.048 nM

B1: hzON72 Fab (humanized version of ON72 Fab fragment) (Fab, V domains shown)
VH: QVQLVQSGAEVKKPGASVKVSCKASGYTFTNYWMHWVRQAPGQGLEWMGEIDPSDIYTNYAQKFQGRVTMTRDTSTSTVYMELSSLRSEDTAVYYCARGIYDGYYVYGMDYWGQGTTVTVSS
VL: YIQMTQSPSSLSASVGDRVTITCRSSQDISNYLNWYQQKPGKAPKLLIYYTSRLHSGVPSRFSGSGSGTDFTFTISSLQPEDIATYYCQQGKTLPRTFGGGTKVEIKR
binding result [10]: binds

B2: 16F16 (recombinantly expressed, IgG4 isotype) (antibody, V domains shown)
VH: EVQLVESGGGLVKPGGSLRLSCAASGFTFSSYSMNWVRQAPGKGLEWVSSITSSSSYIYYADSVKGRFTISRDNAKNSLYLQMNSLRAEDTAVYYCARDRRYFDWFPLDYRGQGTLVTVSS
VL: DIQMTQSPSSLSASVGDRVTITCRASQGISSWLAWYQQKPEKAPKSLIYAASSLQSGVPSRFSGSGSGTDFTLTISSLQPEDFATYYCQQYNGYPYTFGQGTKLEIKR
notes: Fully human anti-hNKG2D antibody from KM mouse hybridoma; variable regions cloned into human IgG4 framework, expressed in HEK293 cells, protein A purified; also called 16F16 IgG4; 16F16 (IgG4)
EC50 [3]: 0.034 nM
